doi:10.1101/2024.07.16.603655 (bioRxiv, 2024)

B1: Prkra-6xHis (recombinant wild-type zebrafish Prkra) (natural protein, UniProt B0V3F8 1-282, looked up)
chain: MAPQRSQDKTPIQLLHEYGIKISSAPKYELIHADGDAHQPSFMFSVTIGEVTCKGRGSTKKAAKHEAAEAALKLLKRDSQIIDQRDNNGLSPEAGEASNPVGILQELAMQRVWCLPEYVVFMETGPGHMKEFTIACRLEGLEETGSGSSKKLARRAAAENMIAKLQSLSGSSEITWSPPSRVYVESLRNSTGEKVSLLKRTPLSLPNTDYIQMLLEISLELGFQVTYIDIDELTVNGQYQCLVELSTRPVTVCHGSGVTSSNAHNAAAHNALQYIKMVASKH

Experiments:
[1] = biological target: dsRBD3-6xHis (dsRNA binding domain 3 of zebrafish Prkra) (zebrafish); test: native gel or EMSA
native gel or EMSA = biological target: the molecule itself; test: native gel or EMSA

Molecule | stoichiometry N [1] | stoichiometry N (native gel or EMSA)
dsRBD3-6xHis (dsRNA binding domain 3 of zebrafish Prkra) (domain or fragment) | 2 | –
B1 | – | ~2
